In PMC7196836, “Molecular analysis of the ribosome recycling factor ABCE1 bound to the 30S post‐splitting complex” (The EMBO Journal, 2020):

Biological target: ribosomal protein uS12 of Thermococcus celer (T. celer (endogenous in T. celer cells), UniProt P29161 1-147)
Experiment: cryo-EM structure; post-splitting complex from 1 nmol T. celer 70S split by ABCE1^IIEA (8 uM), aPelota and aRF1 (5 uM each), 0.5 mM AMP-PNP, 50 mM HEPES-KOH pH 7.5, 30 mM KCl, 10 mM MgCl2, 2 mM DTT, 65 °C 15 min; cross-linked with 1% formaldehyde; 30S fractions of a 10-30% sucrose gradient
Conditions: both partners purified

binding result: binds
B1: ABCE1^IIEA (E238A/E485A), hydrolysis-deficient ABCE1 from Saccharolobus solfataricus (enzyme)
chain: MRVAVINYDFCKPDKCNLECINFCPVDRSGGKAIELSEIVKGKPVIYEETCIGCGICVKKCPYEAISIVNLPDELEGEVIHRYKVNGFKLFGLPTPKNNTILGVLGKNGVGKTTVLKILAGEIIPNFGDPNSKVGKDEVLKRFRGKEIYNYFKELYSNELKIVHKIQYVEYASKFLKGTVNEILTKIDERGKKDEVKELLNMTNLWNKDANILSGGGLQRLLVAASLLREADVYIFDAPSSYLDVRERMNMAKAIRELLKNKYVIVVDHDLIVLDYLTDLIHIIYGESSVYGRVSKSYAARVGINNFLKGYLPAENMKIRPDEIKFMLKEVSDLDLSKDLKTKMKWTKIIKKLGDFQLVVDNGEAKEGEIIGILGPNGIGKTTFARILVGEITADEGSVTPEKQILSYKPQRIFPNYDGTVQQYLENASKDALSTSSWFFEEVTKRLNLHRLLESNVNDLSGGELQKLYIAATLAKEADLYVLDAPSSYLDVEERYIVAKAIKRVTRERKAVTFIIDHDLSIHDYIADRIIVFKGEPEKAGLATSPVTLKTGMNEFLRELEVTFRRDAETGRPRVNKIGSYLDRVQKERGDYYS
notes: ABCE1, ABC-type twin-ATPase, Saccharolobus solfataricus; both catalytic glutamates changed to alanine; Carries iron-sulfur clusters (FeSD); also called ABCE1 E238A/E485A; source: E. coli, recombinant (pSA4 plasmid), purified
